In PMC7010359, “High-resolution crystal structures of Escherichia coli FtsZ bound to GDP and GTP” (Acta Crystallographica. Section F, Structural Biology …, 2020):

Target: the molecule itself
Test: crystal structure; hanging-drop vapor diffusion, 298 K, protein at 37 mg/ml with 1 mM GDP (1.35 Å) or 30 mg/ml with 1 mM GTP (1.40 Å); space group P2(1), one molecule in the asymmetric unit; filament generated by crystal packing

B1: E. coli FtsZ(L178E), truncated to the globular domain (residues 10-316) (domain or fragment, E. coli K-12, UniProt P0A9A6 10-316, looked up)
chain: DAVIKVIGVGGGGGNAVEHMVRERIEGVEFFAVNTDAQALRKTAVGQTIQIGSGITKGLGAGANPEVGRNAADEDRDALRAALEGADMVFIAAGMGGGTGTGAAPVVAEVAKDLGILTVAVVTKPFNFEGKKRMAFAEQGITELSKHVDSLITIPNDKLLKVLGRGISELDAFGAANDVLKGAVQGIAELITRPGLMNVDFADVRTVMSEMGYAMMGSGVASGEDRAEEAAEMAISSPLLEDIDLSGARGVLVNITAGFDLRLDEFETVGNTIRAFASDNATVVIGTSLDPDMNDELRVTVVATGIG
notes: FtsZ, E. coli K-12, globular domain, residues 10-316, with the mutation L178E; expressed from pET-11; Crystallized with 1 mM GDP (PDB 6umk) or 1 mM GTP (PDB 6unx); No tag is mentioned; One molecule in the asymmetric unit; the protofilament arises from crystal packing; also called EcFtsZ(L178E); source: E. coli BL21(DE3), purified (ammonium sulfate precipitation, Resource Q anion exchange)
B1: binds.
